Assays:
[1] = target: T1, N-terminally FLAG tagged Tgl2 (S. cerevisiae, UniProt P54857 1-326); test: native gel or EMSA
T1 sequence (looked up): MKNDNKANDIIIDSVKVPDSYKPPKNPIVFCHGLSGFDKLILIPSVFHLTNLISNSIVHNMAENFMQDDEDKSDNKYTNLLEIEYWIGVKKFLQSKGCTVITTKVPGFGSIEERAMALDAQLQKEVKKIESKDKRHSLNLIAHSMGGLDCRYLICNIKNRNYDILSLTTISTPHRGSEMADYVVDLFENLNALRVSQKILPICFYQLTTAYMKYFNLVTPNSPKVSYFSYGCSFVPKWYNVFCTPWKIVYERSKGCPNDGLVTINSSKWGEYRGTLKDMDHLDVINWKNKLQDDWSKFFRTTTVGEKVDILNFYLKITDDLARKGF

[2] = target: the molecule itself; test: non-reducing SDS-PAGE with immunodecoration

stoichiometry N [1]: ≥ 2
B1: N-terminally HA tagged Tgl2 (natural protein, S. cerevisiae, UniProt P54857 1-326, looked up)
chain: T1 sequence (looked up)
stoichiometry N [2]: 2
